Assay results from the supplement of paper PMC10126150.
± gives the standard deviation of the averaged measurements.

Each sequence was assayed on ATP (assay: switch fluorescence ratio, 500 uM ATP over buffer (Cy3 cluster intensity, sum of 5 cycles each) (fold (ratio)); higher = stronger signal-on switching upon ATP binding; sequences stand for … in TCGTCGGCAGCGTCAGATGTGTATAAGAGACAGTTTTTTTTTTTTTTTTTTTTTTTTT…TC). Details: aptamer strand: ATP DNA aptamer (quencher-CACCTGGGGGAGTATTGCGGAGGAAGG + anchor), 100 nM annealed; ATP concentration: 500 uM.
Summary of the method: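 Clusters carrying Cy3-labelled switching strands on a modified Illumina MiSeq flow-cell were annealed to 100 nM quencher-labelled ATP aptamer and imaged in selection buffer. They were imaged again after 15 min with 500 uM ATP at 22 °C, over five buffer/ATP cycles with NaOH stripping and re-annealing in between. For each cluster, the fluorescence ratio is the summed Cy3 intensity of the target cycles divided by that of the buffer cycles, averaged per switch-domain sequence. Clusters outside 100-1000 RFU were left out.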
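Note: ATP exposure 15 min at 22 °C before imaging.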

| Sequence | switch fluorescence ratio |
| --- | --- |
| GCCTTCGACT | 1.051 ± 0.0017 |
| GCCTTGGACT | 0.976 ± 0.027 |
| GCCTTGTATG | 0.976 ± 0.03 |
| GCCTTTGCAT | 1.04 ± 0.039 |
| GCCTTTTCGA | 0.9827 ± 0.0025 |
| GCCTTTTGCC | 1.044 ± 0.0094 |
| GCGAAAAAAG | 0.99907 ± 0.00052 |
| GCGAAAAACG | 1.03 ± 0.056 |
| GCGAAAGGAA | 1.12 ± 0.14 |
| GCGAAAGGCT | 1.03 ± 0.024 |
| GCGAAAGTCG | 1.018 ± 0.0069 |
| GCGAAATTAA | 0.997 ± 0.018 |
| GCGAACAACT | 1.014 ± 0.0087 |
| GCGAAGGGGT | 1.02 ± 0.031 |
| GCGAATAAGT | 1.02 ± 0.031 |
| GCGAATATCC | 1.11 ± 0.017 |
| GCGACAAAAT | 1.11 ± 0.047 |
| GCGAGAATAG | 1 ± 0.014 |
| GCGAGCAATG | 1.03 ± 0.027 |
| GCGAGCCTCC | 1.3 ± 0.052 |
| GCGAGGAGTA | 1.01 ± 0.024 |
| GCGAGGCCGT | 1 ± 0.056 |
| GCGAGGGAGT | 1.02 ± 0.037 |
| GCGAGGGGTT | 0.969 ± 0.035 |
| GCGAGGGTCG | 1.01 ± 0.043 |

| Sequence | switch fluorescence ratio |
| --- | --- |
| GCGAGGTAGG | 0.9669 ± 0.0043 |
| GCGAGGTCGG | 1.03 ± 0.07 |
| GCGAGGTGGG | 0.999 ± 0.049 |
| GCGATAGACG | 0.99 ± 0.022 |
| GCGATCGGTT | 1.01 ± 0.049 |
| GCGATGGGTC | 1.06 ± 0.0091 |
| GCGATTAAAG | 1 ± 0.014 |
| GCGATTTGTG | 1.01 ± 0.037 |
| GCGCAAATCG | 1.009 ± 0.01 |
| GCGCAAATTT | 0.999 ± 0.017 |
| GCGCACCTTT | 1.01 ± 0.029 |
| GCGCATGGTA | 1.02 ± 0.026 |
| GCGCCTAGGG | 0.999 ± 0.018 |
| GCGCGATATT | 2.17 ± 0.21 |
| GCGCGCACAT | 1.01 ± 0.048 |
| GCGCGGGGCC | 0.999 ± 0.032 |
| GCGCGGGGTA | 0.997 ± 0.029 |
| GCGCTATATG | 1.16 ± 0.049 |
| GCGCTGTCCG | 0.9959 ± 0.0087 |
| GCGCTTAAGT | 0.986 ± 0.043 |
| GCGGAAAAAG | 0.957 ± 0.011 |
| GCGGAACGTG | 0.997 ± 0.04 |
| GCGGAGAGAT | 1.27 ± 0.33 |
| GCGGAGAGTT | 1.01 ± 0.019 |
| GCGGAGTCGG | 0.996 ± 0.053 |

| Sequence | switch fluorescence ratio |
| --- | --- |
| GCGGATCAGC | 1.01 ± 0.059 |
| GCGGATTGTG | 1.032 ± 0.0053 |
| GCGGCAAAAT | 1.01 ± 0.041 |
| GCGGCAGGGC | 1.05 ± 0.017 |
| GCGGCATGGT | 0.985 ± 0.0093 |
| GCGGCCGTTG | 0.965 ± 0.064 |
| GCGGCGGCGT | 1.002 ± 0.0023 |
| GCGGCTGTCG | 0.948 ± 0.085 |
| GCGGCTTAAC | 1.02 ± 0.022 |
| GCGGGACTGG | 1.04 ± 0.034 |
| GCGGGATGTC | 0.972 ± 0.02 |
| GCGGGCCCTT | 1.01 ± 0.012 |
| GCGGGCCGGG | 0.988 ± 0.058 |
| GCGGGCCTTT | 1.015 ± 0.0066 |
| GCGGGGACGC | 0.9982 ± 0.0021 |
| GCGGGGATCT | 1.038 ± 0.0091 |
| GCGGGGATTT | 0.996 ± 0.023 |
| GCGGGGCTTA | 0.98878 ± 0.00093 |
| GCGGGGGAAG | 1 ± 0.02 |
| GCGGGGGACT | 0.997 ± 0.016 |
| GCGGGGGCGG | 1.01 ± 0.018 |
| GCGGGGGGCC | 1.05 ± 0.1 |
| GCGGGGGGCG | 1.01 ± 0.041 |
| GCGGGGGTAG | 1.17 ± 0.25 |
| GCGGGGGTCT | 1.03 ± 0.1 |

| Sequence | switch fluorescence ratio |
| --- | --- |
| GCGGGGTGTG | 1.016 ± 0.0033 |
| GCGGGTACTG | 1.001 ± 0.0052 |
| GCGGGTAGTG | 1.02 ± 0.028 |
| GCGGGTATTG | 0.964 ± 0.038 |
| GCGGGTCATG | 0.981 ± 0.021 |
| GCGGGTCTGG | 1.03 ± 0.022 |
| GCGGGTTGCT | 1.25 ± 0.39 |
| GCGGGTTGGC | 1.08 ± 0.011 |
| GCGGGTTGGG | 0.984 ± 0.047 |
| GCGGTACTGC | 0.999 ± 0.019 |
| GCGGTAGTTC | 1.02 ± 0.023 |
| GCGGTATGGG | 0.9645 ± 0.0046 |
| GCGGTCACGG | 0.9974 ± 0.0092 |
| GCGGTGACTG | 0.965 ± 0.018 |
| GCGGTTAGCT | 1.04 ± 0.066 |
| GCGGTTAGGC | 0.968 ± 0.034 |
| GCGGTTGCTG | 0.954 ± 0.04 |
| GCGGTTGTGC | 0.935 ± 0.051 |
| GCGTAAAAAG | 1.03 ± 0.011 |
| GCGTAAAAGG | 0.974 ± 0.034 |
| GCGTAAACGG | 1.06 ± 0.022 |
| GCGTAAAGGA | 1.02 ± 0.015 |
| GCGTAATCCG | 1.02 ± 0.042 |
| GCGTAATGTT | 0.999 ± 0.022 |
| GCGTACGGCG | 0.993 ± 0.054 |
